Experimental data from article doi:10.1101/2024.11.22.622898.

Biological target: Retromer (recombinant trimer) (human) (UniProt Q96QK1)
Experiment: ITC

Kd	Substance
15.4 µM	DENND4C peptide 1189-1206
6.3 µM	recombinant full-length human TBC1D13 (from UniProt Q9NVG8 1-400) (natural protein)
